Results from publication PMC11370580.

What was measured:
HMGB1-WT (Homo sapiens) [1] = test: restriction enzyme accessibility
HMGB1-WT (Homo sapiens) [2] = test: EMSA; conditions: scale: fold lower affinity than with flanking DNA

| Substance | K half (HMGB1-WT (Homo sapiens) [1]) [nM] | binding signal (HMGB1-WT (Homo sapiens) [2]) |
| --- | --- | --- |
| 40/40-Pst137 nucleosome | 113 |  |
| core nucleosome (0/0) |  | 10 |
